The text below walks through data of patent publication US6512161.

For experiment [1], the target named is rabbit apolipoprotein B-100 (rabbit) (UniProt P17165). Description: densitometry of non-reducing anti-apo(a) immunoblots, apo(a) transgenic rabbit plasma (n=3). A general note: Immunoblotting shows a protein as a band on a membrane.
Experiment [2] has as its target either human or rabbit apoB. Description: densitometry of non-reducing anti-apo(a) immunoblots, apoB/apo(a) transgenic rabbit plasma (n=3).

Chain of UniProt P17165 (P17165 whole entry): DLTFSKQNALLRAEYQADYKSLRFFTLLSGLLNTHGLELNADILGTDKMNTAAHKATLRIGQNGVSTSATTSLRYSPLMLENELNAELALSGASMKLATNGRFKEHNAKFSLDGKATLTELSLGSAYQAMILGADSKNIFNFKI

In experiment [1], human apolipoprotein(a), P08519 20-2040 returned a percent of apo(a) bound of 20% and a percent of apo(a) free of 80%.
Regarding “human apolipoprotein(a) (from UniProt P08519 20-2040)”, in experiment [2], the percent of apo(a) covalently bound came out at 80% and the percent of apo(a) migrating as free apo(a) worked out at 20%.
